Results: patent US20190040142A1 (Genentech, published 2019)

T1: Rat KLB (limits assumed)
T1 construct: also called rat Klotho-beta
T1 single chain: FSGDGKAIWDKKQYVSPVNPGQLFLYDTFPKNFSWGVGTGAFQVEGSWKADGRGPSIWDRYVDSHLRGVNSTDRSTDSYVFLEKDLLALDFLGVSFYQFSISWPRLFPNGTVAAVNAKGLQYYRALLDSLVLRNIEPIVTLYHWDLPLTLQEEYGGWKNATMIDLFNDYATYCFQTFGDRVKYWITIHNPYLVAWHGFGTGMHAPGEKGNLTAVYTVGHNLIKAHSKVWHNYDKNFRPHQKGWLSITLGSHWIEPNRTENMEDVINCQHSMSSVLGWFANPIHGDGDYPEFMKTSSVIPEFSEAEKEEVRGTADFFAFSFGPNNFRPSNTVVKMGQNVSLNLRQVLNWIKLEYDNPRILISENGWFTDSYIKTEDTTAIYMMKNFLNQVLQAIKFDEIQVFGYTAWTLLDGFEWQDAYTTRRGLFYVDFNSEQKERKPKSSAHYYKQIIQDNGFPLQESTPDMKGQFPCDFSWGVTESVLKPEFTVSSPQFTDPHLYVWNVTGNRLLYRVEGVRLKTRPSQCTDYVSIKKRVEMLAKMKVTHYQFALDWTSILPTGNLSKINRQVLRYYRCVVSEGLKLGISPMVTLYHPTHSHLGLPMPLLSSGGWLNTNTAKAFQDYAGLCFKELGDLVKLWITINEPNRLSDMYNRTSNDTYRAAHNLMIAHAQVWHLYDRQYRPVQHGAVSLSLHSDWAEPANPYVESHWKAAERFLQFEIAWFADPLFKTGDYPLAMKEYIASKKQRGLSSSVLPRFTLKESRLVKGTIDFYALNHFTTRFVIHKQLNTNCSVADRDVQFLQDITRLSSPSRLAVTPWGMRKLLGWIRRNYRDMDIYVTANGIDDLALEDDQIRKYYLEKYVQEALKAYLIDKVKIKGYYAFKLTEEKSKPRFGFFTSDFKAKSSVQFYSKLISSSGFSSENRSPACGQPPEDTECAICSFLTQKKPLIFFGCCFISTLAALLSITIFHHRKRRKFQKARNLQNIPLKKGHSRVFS

B1: bispecific anti-KLB antibody 12B8/2C12 (IgG format) (bispecific antibody, V domains shown)
VH 1: QIQLVQSGPELKKPGETAKISCKASGYAFSNYGMNWVKQAPGKDLKWMGWIDTDTGEATYTDDFKGRFVFSLETSASTAYLQINNLKNEDMATYFCAREEYGLFGFPYWGHGTLVTVSA
VL 1: DIQMTQSSSSFSVSLGDRVTITCKASEDIYNRLAWYQQKPGSAPRLLISAATSLETGVPSRFSGSGSGKDYTLSITSLQTEDVATYYCQQYWSNPLTFGAGTKLELK
VH 2: EVQLQQSGPGLVKPSQSLSLTCSVTGYSITSGYYWTWIRQFPGNKLEWMGYIKYDGGNYYNPSLRNRISITRDTSKNHFFLKFYSVTAEDTATYFCARGDYYASPYGAMDSWGQGTSVTVSS
VL 2: DIVMTQSPSSLSASLGDTITITCHASQDIDVWLSWYQQKPGNVPQLLISKSSILHTGVPSRFSGGGSGTGFTLTISSLQPEDIATYYCQQGLSYPFTFGSGTKLKIK
B2: anti-KLB monoclonal antibody 12B8 (antibody, V domains shown)
VH: B1 VH 1
VL: B1 VL 1
notes: Mouse hybridoma antibody; tested as hybridoma supernatant, or recombinantly as mouse IgG2a or human IgG1, depending on the assay; also called clone 12B8; parental antibody 12B8
B3: bispecific anti-KLB antibody 12B8/23B3 (IgG format) (bispecific antibody, V domains shown)
VH 1: B1 VH 1
VL 1: B1 VL 1
VH 2: EVQLQESGPGLVKPSQSLSLTCSVTGYSITSGYYWNWIRQFPGNKLEWMGYIRYDGNSNYNPFLKNRVSITRDTSKNQFFLKLNSVTTEDTATYYCTRKGAYYSSFDALDYWGQGTSVTVSS
VL 2: DIVMTQSPSSMYASLGERVTISCKASQDIRSYLSWFQQKPGKSPKTLIYRANRLVDGVPSRFSGSGSGQDYSLTITSLEFGDVGLYYCLQYDEFPLTFGAGTKLKIE
B4: bispecific anti-KLB antibody 2C12/28B7 (IgG format) (bispecific antibody, V domains shown)
VH 1: B1 VH 2
VL 1: B1 VL 2
VH 2: EVQLQQSGPELVQPGTSVKISCEASGYTFTDYYINWVKQSRGKSLEWIGDINPNNGDTTYNQKFKAKATLTVDRSSNTAYMELRSLTSEDSVVYYCARRFYSSPFDSWGQGTTLTVSS
VL 2: DIVMTQSPSSLAVSVGEKVTLSCKSGQSLLYSRNQKNYLAWYQQKPGQSPKLLISWASTRESGVPDRFTGSGSGTDFTLTISSVKTEDLAVYHCQQYYSYPYTFGGGTRLEIK
B5: anti-KLB monoclonal antibody 2C12 (antibody, human IgG1, V domains shown)
VH: B1 VH 2
VL: B1 VL 2
notes: hybridoma mouse IgG in the first screen; also called clone 2C12; 2C12 (human IgG1)
B6: bispecific anti-KLB antibody 23B3/28B7 (IgG format) (bispecific antibody, V domains shown)
VH 1: B3 VH 2
VL 1: B3 VL 2
VH 2: B4 VH 2
VL 2: B4 VL 2
B7: anti-KLB monoclonal antibody 28B7 (antibody, IgG1, V domains shown)
VH: B4 VH 2
VL: B4 VL 2
notes: also called clone 28B7; 28B7 IgG
B8: anti-KLB monoclonal antibody 23B3 (antibody, V domains shown)
VH: B3 VH 2
VL: B3 VL 2
notes: also called clone 23B3
B9: bispecific anti-KLB antibody 4H7/28B7 (IgG format) (bispecific antibody, V domains shown)
VH 1: QVQLQQSGPELVKPGASVKLSCKASGYTFTNYDINWVRQRPGQGLEWIGWIYPRDGSAKYNAKFKGKATLTVDTSSSTAYMELHSLTSEDSAVYFCARRPLYYGSTHWYFDVWGTGTTVTVSS
VL 1: DIVLTQSPASLAVSLGQRATISCKASQSVDYDGDSYMNWYQQKPGQPPKLLIYAASNLKSGIPARFSGSGSGTDFTLNIHPVEEEDAATYYCQQSNEDPRTFGGGTRLEIK
VH 2: B4 VH 2
VL 2: B4 VL 2
B10: anti-KLB antibody clone 4H7 in tri-chain IgG format (antibody)
chain 1: DIVLTQSPASLAVSLGQRATISCKASQSVDYDGDSYMNWYQQKPGQPPKLLIYAASNLKSGIPARFSGSGSGTDFTLNIHPVEEEDAATYYCQQSNEDPRTFGGGTRLEIKRGGGGSGGGGSGGGGSGGGGSQVQLQQSGPELVKPGASVKLSCKASGYTFTNYDINWVRQRPGQGLEWIGWIYPRDGSAKYNAKFKGKATLTVDTSSSTAYMELHSLTSEDSAVYFCARRPLYYGSTHWYFDVWGTGTTVTVSS
chain 2: not shown
notes: VL-linker-VH-CH1-CH2-CH3 (VLfH) plus a separate CL domain disulfide-bonded to CH1; also called 4H7 tcIgG; 4H7 tcIgG1; not shown: human IgG1 heavy chain constant region (CH1-hinge-CH2-CH3); monospecific tcIgG were made by c
B11: anti-KLB monoclonal antibody 4H7 (antibody, IgG1, V domains shown)
VH: B9 VH 1
VL: B9 VL 1
notes: hybridoma mouse IgG in the first screen; also called clone 4H7; 4H7 IgG

Columns and labels:
[1] = molecular target: human KLB/FGFR1c receptor complex on cells (human, UniProt Q86Z14 53-1044; P11362 22-822); assay: cell-based or functional assay
Rat KLB [2] = molecular target: T1, Rat KLB; assay: flow cytometry, HEK293T cells transiently expressing the construct, anti-human IgG-Alexa 488
[3] = molecular target: T2, human KLB expressed on cells (human, UniProt Q86Z14 53-1044); assay: flow cytometry, HEK293T cells transiently expressing the construct, antibody at 2 µg/ml, anti-human IgG-Alexa 488
T2 construct: also called hKLB; Klotho-beta

[4] = molecular target: T2, human KLB expressed on cells; assay: FACS, HEK293T cells expressing human/rat KLB chimeric proteins; summary table of + and - by epitope bin
[5] = molecular target: T3, recombinant human KLB (soluble protein) (human, UniProt Q86Z14 53-997, limits assumed); assay: SPR, Biacore T200, antibody captured on Protein A chip, monomeric human KLB as analyte, 25 C; mean ± range of two experiments
T3 construct: also called monomeric human KLB; recombinant KLB
Description: (§1) For binding affinity determination of tcIgG and traditional IgG, surface plasmon resonance (SPR) measurements using a BIAcore T200 and ProteinA sensor chip was used and dilutions of monomeric human KLB as analyte were injected over the immobilized tcIgG or traditional IgG at 25° C. to determine monovalent affinities. Association rates (kon) and dissociation rates (koff) were calculated using a simple one-to-one Langmuir binding model. The equilibrium dissociation constant (Kd) was calculated as the ratio koff/kon.

[6] = molecular target: T3, recombinant human KLB (soluble protein); assay: SPR, Biacore T200, antibody captured on Protein A chip, monomeric human KLB as analyte, 25 C; mean of two experiments
Description: as §1

[7] = molecular target: T3, recombinant human KLB (soluble protein); assay: SPR (BIAcore T200), antibody captured on Protein A chip, monomeric human KLB as analyte, 25 C, 1:1 Langmuir fit
Description: as §1

Rat KLB [8] = molecular target: T1, Rat KLB; assay: FACS, HEK293T cells expressing human/rat KLB chimeric proteins; summary table of + and - by epitope bin
[9] = molecular target: B5; assay: biolayer interferometry (Octet), anti-human Fc sensor -> human Ab1 -> no hKLB -> mouse Ab2
Description: Epitope binning experiments (FIGS. 11A-11B) were performed by BioLayer Inferometry in 8-channel or 16-channel mode using anti-mouse Fc or anti-human Fc capture biosensors on the Octet Red384 system (Pall Life Sciences, Menlo Park, Calif.). […] Epitope binning with anti-human Fc capture biosensors was done similarly.

Binder: B1
EC50 (nM), luciferase-based reporter assay [1]: 1.36 nM

Binder: B2
binding result (Rat KLB [2]): no binding (tested: 2 µg/ml (not on the sheet))
binding result [3]: binds

Binder: B3
EC50 (nM), luciferase-based reporter assay [1]: 0.95 nM

Binder: B4
EC50 (nM), luciferase-based reporter assay [1]: 0.58 nM

Binder: B5
binding result (Rat KLB [2]): no binding (tested: 2 µg/ml (not on the sheet))
binding result [4]: binds

Binder: B6
EC50 (nM), luciferase-based reporter assay [1]: 0.63 nM

Binder: B7
Kd [5]: 2.65 nM
koff [5]: 0.000276 s⁻¹
kon [6]: 104000 M⁻¹ s⁻¹
kon [7]: 104000 M⁻¹ s⁻¹
binding result (Rat KLB [8]): no binding (tested: not given)

Binder: B8
binding result [9]: no binding
binding result (Rat KLB [2]): no binding (tested: 2 µg/ml (not on the sheet))
binding result [4]: binds

Binder: B9
EC50 (nM), luciferase-based reporter assay [1]: 1.21 nM

Binder: B10
Kd [5]: 1.29 nM
koff [5]: 0.000427 s⁻¹
kon [5]: 332000 M⁻¹ s⁻¹
kon [7]: 332000 M⁻¹ s⁻¹

Binder: B11
Kd [5]: 0.78 nM
koff [5]: 0.000444 s⁻¹
kon [5]: 571000 M⁻¹ s⁻¹
kon [7]: 571000 M⁻¹ s⁻¹
binding result (Rat KLB [8]): no binding (tested: not given)
